Kd and IC50 data for 39 sequences are collected here from the Immune Epitope Database (IEDB).

Assay [1] addresses HLA-B*40:01. The experiment in a line: IEDB peptide-MHC binding, purified MHC/competitive/radioactivity; filed as Kd, often an IC50 or EC50 that approximates it; ≥ and ≤ were set here for values at or beyond the usual limits of such assays.
For the next assay, the target named is HLA-A*02:01. The experiment in a line: IEDB peptide-MHC binding, purified MHC/competitive/fluorescence; ≥ and ≤ were set here for values at or beyond the usual limits of such assays.
Another assay addresses HLA-B*08:01. The experiment in a line: IEDB peptide-MHC binding, purified MHC/competitive/radioactivity; filed as Kd, often an IC50 or EC50 that approximates it; ≥ and ≤ were set here for values at or beyond the usual limits of such assays.
A further assay deals with HLA-B*44:02. Described as above.
Another assay deals with HLA-B*44:03. The assay is described as above.
The next assay addresses HLA-B*07:02. The assay can be described thus: IEDB peptide-MHC binding, purified MHC/direct/fluorescence; filed as Kd, often an IC50 or EC50 that approximates it; ≥ and ≤ were set here for values at or beyond the usual limits of such assays.
The target in another assay is HLA-A*01:01. The description is as above. The following applies: source organism: Homo sapiens.
The target in the next assay is HLA-A*69:01. The description is as above. The note with it: source organism: Homo sapiens.
For assay [2], the target named is HLA-A*31:01. The description is as above. The following applies: source organism: Plum pox virus.
For assay [3], the target named is HLA-A*03:01. The description is as above. The following applies: source organism: Plum pox virus.
The target of another assay is HLA-A*33:01. The experiment in a line: IEDB peptide-MHC binding, purified MHC/competitive/radioactivity; filed as Kd, often an IC50 or EC50 that approximates it; ≥ and ≤ were set here for values at or beyond the usual limits of such assays. The note with it: source organism: Vaccinia virus WR.
The next assay addresses HLA-A*68:01. The assay is described as above. The note with it: source organism: Vaccinia virus WR.
For a further assay, the target named is HLA-A*29:02. The assay is described as above. The following applies: source organism: Vaccinia virus WR.
Assay [4] addresses HLA-A*31:01. The assay is described as above. The following applies: source organism: Vaccinia virus WR.
For a further assay, the target named is HLA-A*11:01. The assay is described as above. The following applies: source organism: Vaccinia virus WR.
For assay [5], the target named is HLA-A*03:01. The assay is described as above. The note with it: source organism: Vaccinia virus WR.
The target of assay [6] is HLA-B*40:01. The experiment in a line: IEDB peptide-MHC binding, purified MHC/direct/fluorescence; filed as Kd, often an IC50 or EC50 that approximates it; ≥ and ≤ were set here for values at or beyond the usual limits of such assays. The note with it: source organism: Mycobacterium tuberculosis variant bovis.
Another assay has as its target HLA-A*24:02. The assay can be described thus: IEDB peptide-MHC binding, purified MHC/competitive/radioactivity; filed as Kd, often an IC50 or EC50 that approximates it; ≥ and ≤ were set here for values at or beyond the usual limits of such assays.
Where [7] appears, read: source organism: Dengue virus 4 Philippines/H241/1956.
[8] abbreviates: source organism: Dengue virus 2 Jamaica/1409/1983.
The mark [9] stands for this setting: source organism: Dengue virus 1 Brazil/97-11/1997.
The mark [10] stands for this setting: source organism: Vaccinia virus WR.
The mark [11] stands for this setting: source organism: Dengue virus 2 16681-PDK53.
Where [12] appears, read: source organism: Dengue virus 3 Martinique/1243/1999.

The term Kd denotes the free concentration of one partner at which half of the binding sites on the other are occupied at equilibrium, for simple one-to-one binding. For the sequence LETRAETWM, the Kd with HLA-B*40:01 [1] (setting [7]) was 261 nM. Usually IC50 stands for the midpoint of a concentration-inhibition curve. A lower IC50 goes with greater potency in that assay. The sequence AVVIVGLHGV had an IC50 in the assay with HLA-A*02:01 (source organism: Human alphaherpesvirus 1 strain 17) not below 50000 nM. With ILNRRRRTA, the Kd with HLA-B*08:01 (setting [8]) stood at 147 nM. As to ALFSSCPV, the half-inhibitory concentration (IC50) in the assay with HLA-A*02:01 (source organism: Mus musculus) was determined as 291 nM. As for VDLHPASAW, the dissociation constant (Kd) in the assay with HLA-B*44:02 (setting [9]) is 80.2 nM. NEMVLLQME: the Kd with HLA-B*44:02 (setting [8]) was found to be 907 nM. With LLRKHTLKI, in the assay with HLA-B*08:01 (setting [10]), the equilibrium dissociation constant (Kd) stood at 20.8 nM. Consider SENEVKLTIM, for which the Kd was 377 nM with HLA-B*44:03 (setting [8]), 23.7 nM with HLA-B*44:02 (setting [8]) and 974 nM with HLA-B*40:01 [1] (setting [8]).

For VGRQEKGKSL, in the assay with HLA-B*08:01 (setting [8]), the Kd worked out at 3150 nM.

On to YENLKYSVIV, for which the Kd in the assay with HLA-B*40:01 [1] (setting [9]) was determined as 70.6 nM. On to SPSKRNQTF, for which the dissociation constant Kd with HLA-B*07:02 (source organism: Mammarenavirus amapariense) was 66.8 nM. In the case of SQILLMRTTW, the results for the Kd with HLA-B*44:03 (setting [9]) and in the assay with HLA-B*44:02 (setting [9]) were 327 nM and 359 nM, respectively. Consider SLEFIRRSL, for which the Kd with HLA-B*08:01 (setting [10]) was found to be 1230 nM. For VLNGAELSN, the IC50 with HLA-A*02:01 (source organism: Vaccinia virus) was not below 114000 nM. Regarding VNKFKFGAA, in the assay with HLA-B*08:01 (setting [10]), the Kd is 158 nM. Consider NPVPVGNIY, for which, in the assay with HLA-B*07:02 (source organism: Human immunodeficiency virus type 2 (ISOLATE D205,7)), the equilibrium dissociation constant (Kd) is not below 40300 nM. Consider YVDHYYRDY, for which the dissociation constant (Kd) with HLA-A*01:01 was 92.3 nM; with HLA-A*69:01 it was 2000 nM. With GTMHQEIFR, the dissociation constant (Kd) came out at 41.9 nM with HLA-A*31:01 [2] and 83.9 nM in the assay with HLA-A*03:01 [3]. Consider IIVNNQESNK, for which the dissociation constant Kd with HLA-A*33:01 is not below 36200 nM; with HLA-A*68:01, 3230 nM; with HLA-A*29:02, not below 68200 nM; with HLA-A*31:01 [4] it was not below 29900 nM; with HLA-A*11:01, 4400 nM; with HLA-A*03:01 [5], 1130 nM.

As for IMDLEKRHVL, in the assay with HLA-B*08:01 (setting [8]), the Kd amounted to 42.1 nM.

With NKAWLVHRQW, the Kd with HLA-B*44:03 (setting [11]) is 4090 nM; with HLA-B*44:02 (setting [11]) it was 1160 nM. The sequence GEPDARYEI gave a Kd in the assay with HLA-B*40:01 [6] of 70.2 nM. Consider LIAIAVASGL, for which, in the assay with HLA-B*08:01 (setting [7]), the Kd came to 11700 nM. For VEDYGFGMF, the dissociation constant (Kd) with HLA-B*40:01 [1] (setting [7]) amounted to 965 nM. On to INKRKKTSL, for which the dissociation constant (Kd) with HLA-B*08:01 (setting [12]) was found to be 18.3 nM. For the sequence KERMVTFKV, the dissociation constant Kd in the assay with HLA-B*40:01 [1] (setting [7]) was 5760 nM. The sequence VILSLPRIA registered a half-inhibitory concentration (IC50) with HLA-A*02:01 (source organism: Variola virus) of 1390 nM. As to SLEKAAEVSW, the dissociation constant (Kd) with HLA-B*44:02 (setting [9]) was found to be 174 nM. With GETAWDFGSV, the dissociation constant Kd with HLA-B*40:01 [1] (setting [7]) was 388 nM. For SEVCDHRLM, the Kd worked out at 76.1 nM in the assay with HLA-B*44:03 (setting [7]), 26 nM with HLA-B*44:02 (setting [7]) and 303 nM with HLA-B*40:01 [1] (setting [7]). Take ESMASLKSLY: the dissociation constant (Kd) with HLA-A*33:01 is 15900 nM; with HLA-A*68:01, 4.63 nM; in the assay with HLA-A*29:02, not below 71400 nM; in the assay with HLA-A*31:01 [4], 3190 nM; with HLA-A*11:01, 116 nM; in the assay with HLA-A*03:01 [5], 7.63 nM. For VYTQLCDHRL, the dissociation constant (Kd) in the assay with HLA-A*24:02 (setting [12]) is 6.35 nM. Regarding REAVEDSRFW, the results for the Kd with HLA-B*44:03 (setting [8]) and with HLA-B*44:02 (setting [8]) were 127 nM and 78.7 nM, respectively. In the case of TYGLNTFTN, the Kd in the assay with HLA-A*24:02 (setting [8]) worked out at 1590 nM. Consider LNGRKRSTM, for which, in the assay with HLA-B*08:01 (setting [7]), the equilibrium dissociation constant (Kd) was 100 nM.

TTQDEGAAI gave a half-maximal inhibitory concentration (IC50) with HLA-A*02:01 (source organism: Zaire ebolavirus) not below 220000 nM.

VAELVHFLL: in the assay with HLA-A*24:02 (source organism: Homo sapiens), the Kd was 149 nM.

As to IPYHIVNIV, the equilibrium dissociation constant (Kd) with HLA-A*69:01 was 1340 nM; in the assay with HLA-B*07:02 (source organism: Homo sapiens), 3460 nM. For WIMKIGIGVL, the dissociation constant (Kd) in the assay with HLA-B*08:01 (source organism: Dengue virus 3 Singapore/8120/1995) came out at 287 nM.
